B1: LYP tagged with the myc epitope, Arg620 variant (myc-LYPR) [human] / HA-CSK [not stated] (parent complex)
chain 1: MDQREILQKFLDEAQSKKITKEEFANEFLKLKRQSTKYKADKTYPTTVAEKPKNIKKNRYKDILPYDYSRVELSLITSDEDSSYINANFIKGVYGPKAYIATQGPLSTTLLDFWRMIWEYSVLIIVMACMEYEMGKKKCERYWAEPGEMQLEFGPFSVSCEAEKRKSDYIIRTLKVKFNSETRTIYQFHYKNWPDHDVPSSIDPILELIWDVRCYQEDDSVPICIHCSAGCGRTGVICAIDYTWMLLKDGIIPENFSVFSLIREMRTQRPSLVQTQEQYELVYNAVLELFKRQMDVIRDKHSGTESQAKHCIPEKNHTLQADSYSPNLPKSTTKAAKMMNQQRTKMEIKESSSFDFRTSEISAKEELVLHPAKSSTSFDFLELNYSFDKNADTTMKWQTKAFPIVGEPLQKHQSLDLGSLLFEGCSNSKPVNAAGRYFNSKVPITRTKSTPFELIQQRETKEVDSKENFSYLESQPHDSCFVEMQAQKVMHVSSAELNYSLPYDSKHQIRNASNVKHHDSSALGVYSYIPLVENPYFSSWPPSGTSSKMSLDLPEKQDGTVFPSSLLPTSSTSLFSYYNSHDSLSLNSPTNISSLLNQESAVLATAPRIDDEIPPPLPVRTPESFIVVEEAGEFSPNVPKSLSSAVKVKIGTSLEWGGTSEPKKFDDSVILRPSKSVKLRSPKSELHQDRSSPPPPLPERTLESFFLADEDCMQAQSIETYSTSYPDTMENSTSSKQTLKTPGKSFTRSKSLKILRNMKKSICNSCPPNKPAESVQSNNSSSFLNFGFANRFSKPKGPRNPPPTWNI
chain 2: MSAIQAAWPSGTECIAKYNFHGTAEQDLPFCKGDVLTIVAVTKDPNWYKAKNKVGREGIIPANYVQKREGVKAGTKLSLMPWFHGKITREQAERLLYPPETGLFLVRESTNYPGDYTLCVSCDGKVEHYRIMYHASKLSIDEEVYFENLMQLVEHYTSDADGLCTRLIKPKVMEGTVAAQDEFYRSGWALNMKELKLLQTIGKGEFGDVMLGDYRGNKVAVKCIKNDATAQAFLAEASVMTQLRHSNLVQLLGVIVEEKGGLYIVTEYMAKGSLVDYLRSRGRSVLGGDCLLKFSLDVCEAMEYLEGNNFVHRDLAARNVLVSEDNVAKVSDFGLTKEASSTQDTGKLPVKWTAPEALREKKFSTKSDVWSFGILLWEIYSFGRVPYPRIPLKDVVPRVEKGYKMDAPDGCPPAVYEVMKNCWHLDAAMRPSFLQLREQLEHIKTHELHL

The first assay covers variants of B1. In words: co-immunoprecipitation (IP anti-myc, IB HA), blot densitometry; HEK293 cells; parent: 64.8.
For chain 1 R620F, chain 1 R700F, the response was 0.03 arbitrary units.
On the same count and under the same terms, in the case of chain 1 R700F it was 30 arbitrary units.
As for chain 1 R620F, the response amounted to 5.2 arbitrary units.

Variants of B1 are the subject of another assay. In words: co-immunoprecipitation (IP anti-myc, IB HA), blot densitometry; transfected HEK293 cells; parent: 48.1.
On to chain 1 R620W, chain 1 P695A, for which the response is 0.07 arbitrary units.
Still for that read-out and setting: in the case of chain 1 P615A, chain 1 P618A, chain 1 P695A it was 0.77 arbitrary units; in that of chain 1 P615A, chain 1 P618A, 10.3 arbitrary units; in that of chain 1 P695A, 23.3 arbitrary units.
For the variant chain 1 R620W, the response is 18 arbitrary units.

Another assay covers variants of B1. In words: co-immunoprecipitation (IP anti-myc, IB HA), blot densitometry; transiently transfected HEK293 cells; pEF empty-vector lane 3.67; parent: 57.8.
Regarding chain 1 I626A, chain 1 V627A, the response is 19.1 arbitrary units.
On to chain 1 R620W, for which the response is 19.5 arbitrary units.

Values taken from article PMC3554717 (2013).
